Drawing on the supplement of paper PMC12042874, this text covers amyloid nucleation score for 138 substances.

± gives the uncertainty stated by the source.

The nature of this series: amyloid nucleation score (Sup35N fusion, yeast selection) (log enrichment); library NNK2; higher = more nucleation; inactive = no reads after selection. The gist of the method: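 On medium lacking adenine and uracil, psi-negative yeast expressing peptides of 20 random codons fused to Sup35N were grown 7 days at 30°C after a 24-hour induction with 100 μM copper sulfate. Illumina sequencing of input and output plasmid inserts gave the reads, and sequences under 100 input reads were excluded. The nucleation score is the DiMSum log enrichment of output over input reads, centred on the mode score of non-aggregating sequences.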
In turn, YVYVDYWICTIWCVLCNLCS showed an amyloid nucleation score of 0.256 ± 1.

Regarding LFYRYFLCVTRRTNEYGVL, the amyloid nucleation score is -1.75 ± 1.

FLVLIQRKAQGITLQREGTW: the amyloid nucleation score is 5.84 ± 0.069.

Substance NEENVEVFCYRVSGSYRCYQ registered an amyloid nucleation score of 4.36 ± 0.094.

PWNMACFS: the amyloid nucleation score entry was “inactive”.

VACCFNSQYSEAI registered an amyloid nucleation score of 3.99 ± 0.076.

FRVSSIWDRLVATLGNMCRS: the amyloid nucleation score result was “inactive”.

YSHAGEASWDYVSLWFSSRK gave an amyloid nucleation score of 0.49 ± 0.46.

Regarding LYLKFYLCTGKDNDWNT, the amyloid nucleation score result is “inactive”.

KKKDSAKLLVTE returned an amyloid nucleation score of -0.409 ± 0.76.

As to PEDLLGRWIIFSYVFTIYSI, the amyloid nucleation score result is “inactive”.

Substance SIVMFVCDLRNQPTAIFRDR had an amyloid nucleation score of 8.256 ± 0.074.

Consider FIKVFCSLRVDNQVRYRKRL, for which the amyloid nucleation score stood at 2.75 ± 0.1.

In turn, ANMLRWLNFETFAVSRNLAI registered an amyloid nucleation score of 0.009 ± 0.74.

With RGERVSPNNGTS, the amyloid nucleation score stood at 0.87 ± 0.14.

WLHTTFSRSICSISIHRALE registered an amyloid nucleation score of -0.07 ± 0.48.

Substance YQDSKRE had an amyloid nucleation score of -0.833 ± 1.1.

The substance CSCGYMKANR returned an amyloid nucleation score of -0.721 ± 1.

In turn, VGVIAMPLFLCMGQDSLLFV had an amyloid nucleation score of 4.6 ± 0.061.

TVLCTRRLAWRYRLHFFFQ came in with an amyloid nucleation score of 3.16 ± 0.073.

For the substance YRMAAVIYIYIIRFSGSCMW, the amyloid nucleation score was -2.08 ± 0.62.

In the case of PGILDNRLGKQGAGLDLRWH, the amyloid nucleation score came out at 1.17 ± 0.24.

Substance SVGMKLRREEFGRSAVRAVL showed an amyloid nucleation score of 0.901 ± 0.28.

Take LSNAFRLNYTLLYAFISYFH: the amyloid nucleation score is -1.22 ± 0.76.

ACSQLSYWTFHSPWP displayed an amyloid nucleation score of 4.07 ± 0.072.

Substance AGNQIRIRASTCASMLGWDL gave an amyloid nucleation score of 3.83 ± 0.051.

Take GISLGDNIRFYLDCTAAPGA: the amyloid nucleation score was -0.648 ± 0.42.

The substance FYKTLCKLGWAPWS had an amyloid nucleation score of -0.744 ± 0.32.

For YFYNGSRA, the amyloid nucleation score was -1.61 ± 1.1.

Regarding SMPPRLQSKLPRDFSAQSVK, the amyloid nucleation score is 4.63 ± 0.1.

The substance RQYCIKDSWGSSGQLSVGLR came in with an amyloid nucleation score of 2.1 ± 0.17.

On to FKINESSYVLWDGSSYCRAG, for which the amyloid nucleation score is -0.711 ± 1.1.

The substance GKCRRPMCGGKFGDQGLLRL had an amyloid nucleation score of 3.27 ± 0.11.

KGRFHNLTEPGRVQEKE yielded an amyloid nucleation score of -1.32 ± 0.49.

SYWKTSKCMTKLLGCNM yielded an amyloid nucleation score of -0.243 ± 0.45.

For FYINVRLYARVACRCMRVPC, the amyloid nucleation score was found to be 5.4 ± 0.076.

INSVFNGIGRVYRHW had an amyloid nucleation score of -0.554 ± 1.

For DMCDYQSVGF, the amyloid nucleation score result was “inactive”.

On to HRNNQMQCVFAFLW, for which the amyloid nucleation score was 7.199 ± 0.053.

EWLTLTDIFT yielded an amyloid nucleation score of -0.619 ± 1.

The substance RVPGPVHSSCYTAARFFCPM had an amyloid nucleation score of 1.83 ± 0.14.

Turning to RMKSFLLNFARNSLCVVRHG, the amyloid nucleation score worked out at 1.43 ± 0.41.

Turning to NATEGFESFWM, the amyloid nucleation score entry is “inactive”.

Take CRWISTTLIFARCELFRLAV: the amyloid nucleation score was determined as 0.567 ± 0.38.

In turn, FFMIEMPVKSTFVGWSRSEG had an amyloid nucleation score of -0.074 ± 0.25.

GTRDHGELGLLFTTTLLFVE gave an amyloid nucleation score of 1.39 ± 0.13.

For the substance GRRFLYKPAKTWYVVWHRGL, the amyloid nucleation score came to 0.229 ± 0.49.

For the substance FQCSYVWVKLWHILN, the amyloid nucleation score was -0.887 ± 1.1.

In turn, AYRWMDSSSTRFGTGLG returned an amyloid nucleation score of 0.895 ± 0.81.

Consider KQLKWFCITK, for which the amyloid nucleation score is -0.862 ± 0.45.

As for GCTGGRIK, the amyloid nucleation score is -0.088 ± 0.49.

Substance VQATGADVFWDW came in with an amyloid nucleation score of -0.199 ± 0.76.

For the substance NGFYSGDFWEADGTRLDVTC, the amyloid nucleation score amounted to 0.053 ± 0.79.

The substance PCRYSSKSNYTW returned an amyloid nucleation score of -0.507 ± 0.76.

As to AFRDRWLKRMKLTYVVGCIN, the amyloid nucleation score was -0.17 ± 0.45.

Consider FLFYTFRLRVFFLNCNSEDW, for which the amyloid nucleation score is -1.97 ± 0.54.

On to RSALVGGRHNVVNWVRGSKM, for which the amyloid nucleation score came out at 0.079 ± 0.55.

Substance TGYHNLMGVLGMVAVKHELG returned an amyloid nucleation score of -0.09 ± 0.25.

Substance VMCIG yielded an amyloid nucleation score of -0.33 ± 0.41.

FIVSDSRCVGNVTNGQSVLS registered an amyloid nucleation score of -0.97 ± 0.63.

In the case of NVSSSLPF, the amyloid nucleation score is -0.424 ± 0.78.

For AYHAMVCYINLFSDVYLHGY, the amyloid nucleation score worked out at 4.98 ± 0.089.

Consider YHYANDMFFN, for which the amyloid nucleation score is -0.727 ± 0.56.

TGQSHFSWQYLRTAAVYSRR gave an amyloid nucleation score of 0.569 ± 0.27.

Substance ADRSVGGFNCVSFLYAVN came in with an amyloid nucleation score of 4.02 ± 0.076.

Substance STKVR registered an amyloid nucleation score of 1.3 ± 0.32.

Turning to DIDAIYTFRACGDMPSHFRR, the amyloid nucleation score is -0.172 ± 0.35.

The substance SVWPGRSAEASRFGFGAGAD registered an amyloid nucleation score of 0.528 ± 0.49.

As to VRPMLGGSNRLHFSMVFDDD, the amyloid nucleation score was determined as 5.964 ± 0.059.

As to MWGIRSYLVKVL, the amyloid nucleation score was -0.291 ± 0.76.

Substance MGMFKTCVHLNCVYR came in with an amyloid nucleation score of 5.229 ± 0.05.

Turning to KSMFRTNLYIIILQSSTRFQ, the amyloid nucleation score is -1.06 ± 0.76.

SVCLSPYLSLNYFYWWNSKR: the amyloid nucleation score was found to be 8.377 ± 0.046.

As for WSTFSTFTGYSA, the amyloid nucleation score was -0.335 ± 0.5.

Regarding SGYWNGVIRTKSNNDTVYVK, the amyloid nucleation score was -0.395 ± 0.22.

As to NSIIGCYRGFC, the amyloid nucleation score amounted to 4.63 ± 0.092.

For YTVGRGSR, the amyloid nucleation score turned out to be 0.794 ± 0.6.

The substance IGIAKYLREGRSSPTESL gave an amyloid nucleation score of -0.5 ± 0.33.

As for MSTGRCILRPFLGSPRSSVV, the amyloid nucleation score entry is “inactive”.

RCERWCPWNFHNQAL had an amyloid nucleation score of 0.449 ± 0.51.

Regarding WTYACPKRHNVIVVC, the amyloid nucleation score was 3 ± 0.062.

On to QVTSCGSWWSRSIWYEVVFS, for which the amyloid nucleation score was -0.622 ± 1.1.

Take WSYCVNERSVIKQGLTCAYV: the amyloid nucleation score is -0.28 ± 0.76.

The substance LVEAFYNVWRRTSAHCETVC returned an amyloid nucleation score of -0.272 ± 0.55.

As for QLFVMPCMNSFEGRKRNCFS, the amyloid nucleation score is -0.836 ± 0.48.

SSNLKYGKSIFGNSFLQSVF: the amyloid nucleation score is -1.27 ± 0.62.

With FSNLPGH, the amyloid nucleation score amounted to 1.98 ± 0.15.

In the case of NEIFGTVIC, the amyloid nucleation score was -1.12 ± 1.

On to LRSKTDAPDGRFLAWSSMLC, for which the amyloid nucleation score was determined as 0.458 ± 0.25.

Take KSCYIAV: the amyloid nucleation score was -0.066 ± 0.45.

On to QTGQGYIVQGTVNSMKGCFR, for which the amyloid nucleation score was -0.038 ± 0.65.

DQSTSFFIFYNQTNWSMLFP: the amyloid nucleation score came to 6.12 ± 0.056.

In turn, RTVQQIAPVGGHERVKC gave an amyloid nucleation score of -0.175 ± 0.26.

Consider NLVYYYHLLSRIVNSYNDAL, for which the amyloid nucleation score is 0.811 ± 0.82.

In turn, ADQSYLRNCIFWRQMILTRY gave an amyloid nucleation score of -0.193 ± 0.39.

Take KLHQNSKGCPGVLPVDGLKM: the amyloid nucleation score was determined as 0.82 ± 0.56.

Turning to SLQRIKGNFQPMVFAINMFN, the amyloid nucleation score was 4.6 ± 0.11.

In turn, YYAGADFEGNSCGDSIPACR had an amyloid nucleation score of -0.208 ± 1.1.

As to LLLVPIPH, the amyloid nucleation score was found to be 1.07 ± 0.38.

For the substance TYIRDRHIVYWGHTGSFIYM, the amyloid nucleation score was 1.63 ± 0.18.

On to CLNKIETPSTVKFRECHCCD, for which the amyloid nucleation score is 4.517 ± 0.041.

For VRSPCVDVYFPYSLVLDMCL, the amyloid nucleation score came out at 0.614 ± 0.62.

MWESQGHSLAV: the amyloid nucleation score result was “inactive”.

In turn, YRDECWLSYS showed an amyloid nucleation score of -0.347 ± 0.56.

Turning to MHRFRMSLVLRRGSGLVGWF, the amyloid nucleation score is -0.081 ± 1.1.

YSYKFAAVSMIWVYPCEHTS gave an amyloid nucleation score of 1.71 ± 0.18.

STMVVRVFIGNVFMSFNMIR registered an amyloid nucleation score of 4.36 ± 0.059.

As for CSCEVALIIK, the amyloid nucleation score result was “inactive”.

In turn, RKMGSFNHLSERVSYHCVWL came in with an amyloid nucleation score of 3.96 ± 0.052.

RYVTKGLCLL yielded an amyloid nucleation score of 1.16 ± 0.47.

With YDNKASDVMVNYLRHICVYS, the amyloid nucleation score result is “inactive”.

RFMFPRTSIVWNASYVVGVL yielded an amyloid nucleation score of 2.92 ± 0.11.

NVLRCINYYLYYTSGCASSS gave an amyloid nucleation score of -0.169 ± 0.42.

With RMFDYDSGGNNRICYDYYAN, the amyloid nucleation score was -1.69 ± 0.61.

For FTCAYA, the amyloid nucleation score entry is “inactive”.

MVHMGGDDMCCGIVVWTQAP: the amyloid nucleation score turned out to be 11.85 ± 0.066.

Regarding GRMNTLDTFLTMAISDDASF, the amyloid nucleation score is -0.147 ± 0.46.

The substance NITKTRHFLSLNYYNVYAFS yielded an amyloid nucleation score of 5.05 ± 0.056.

Substance WGFIVDFILSGRRPAGYQLL showed an amyloid nucleation score of 0.309 ± 0.8.

As to SIHDVVYLGPVVVAKDSSVF, the amyloid nucleation score result is “inactive”.

Turning to SGTMSLLKMLLEYKLLT, the amyloid nucleation score was -0.678 ± 0.76.

Consider PFSNMLASAFNFILITCSDL, for which the amyloid nucleation score entry is “inactive”.

As to RLRVVEPGNACWGQMLG, the amyloid nucleation score was 0.165 ± 1.

Take PYVMCLNDYPSSKDCFQIVS: the amyloid nucleation score is -0.619 ± 0.27.

YSSSVMPRRSDRVRT: the amyloid nucleation score was found to be 0.139 ± 0.63.

The substance CTLRGGYISWVQVYE returned an amyloid nucleation score of 2.1 ± 0.1.

FNGCFSCTMG returned an amyloid nucleation score of 8.109 ± 0.055.

YHGFSQDCLNV yielded an amyloid nucleation score of -0.042 ± 0.55.

On to TCSSPTMKSYMNHCLHVDSF, for which the amyloid nucleation score was 0.516 ± 0.47.

With SRVIVGLWYDGRVKPLELCM, the amyloid nucleation score was 0.342 ± 0.62.

Turning to NDLESMYSEGFPLLNTAHK, the amyloid nucleation score entry was “inactive”.

In turn, SVSIPCNNCCRLLCRMFKLC displayed an amyloid nucleation score of -0.716 ± 0.28.

For the substance LHTLVALINACRNASGSVHD, the amyloid nucleation score was found to be 0.167 ± 0.65.

FLAGVSVFWSYCDSTNLSNQ showed an amyloid nucleation score of -0.111 ± 0.29.

With FARSFPRFRTESFDCKECRG, the amyloid nucleation score result was “inactive”.

Take LSLRDVGGLLSNLSIMCGKG: the amyloid nucleation score came out at 0.144 ± 0.25.

Consider WDGLASLQVSCVAMLLVQSF, for which the amyloid nucleation score was -0.546 ± 0.39.

Substance DCSDPCGSAPKDLSTKTVRC returned an amyloid nucleation score of 1.61 ± 0.26.
